Test results taken from patent US12258605B2, “Alkane oxidation by modified hydroxylases” (The California Institute of Technology, priority 2005, dated 2025).

B1: 35-E11: P450 BM-3 variant, SEQ ID NO:7: 53-5H substitutions plus E464G and I710T (protein)
chain: TIKEMPQPKTFGELKNLPLLNTDKPVQALMKIADELGEIFKFEAPGCVTRYLSSQRLIKEACDESRFDKNLSQALKFFRDFSGDGLFTSWTHEINWKKAHNILLPSFSQQAMKGYHAMMVDIAVQLVQKWERLNADEHIEVSEDMTRLTLDTIGLCGFNYRFNSFYRDQPHPFIISMVRALDEVMNKLQRANPDDPAYDENKRQCQEDIKVMNDLVDKIIADRKARGEQSDDLLTQMLNGKDPETGEPLDDGNISYQIITFLIAGHETTSGLLSFALYFLVKNPHVLQKVVEEAARVLVDPVPSYKQVKQLKYVGMVLNEALRLWPTFPAFSLYAKEDTVLGGEYPLEKGDEVMVLIPQLHRDKTIWGDDVEEFRPERFENPSAIPQHAFKPFGNGQRACIGQQFALHEATLVLGMMLKHFDFEDHTNYELDIKETLTLKPEGFVVKAKSKKIPLGGIPSPSTGQSAKKVRKKAENAHNTPLLVLYGSNMGTAEGTARDLADIAMSKGFAPQVATLDSHAGNLPREGAVLIVTASYNGHPPDNAKQFVDWLDQASADEVKGVRYSVFGCGDKNWATTYQKVPAFIDETLAAKGAENIADRGEADASDDFEGTYEEWREHMWSDVAAYFNLDIENSEDNKSTLSLQFVDSAADMPLAKMHGAFSTNVVASKELQQPGSARSTRHLEIELPKEASYQEGDHLGVIPRNYEGTVNRVTARFGLDASQQIRLEAEEEKLAHLPLAKTVSVEELLQYVELQDPVTRTQLRAMAAKTVCPPHKVELEALLEKQAYKEQVLAKRLTMLELLEKYPACEMKFSEFIALLPSIRPRYYSISSSPRVDEKQASITVSVVSGEAWSGYGEYKGIASNYLAELQEGDTITCFISTPQSEFTLPKDPETPLIMVGPGTGVAPFRGFVQARKQLKEQGQSLGEAHLYFGCRSPHEDYLYQEELENAQSEGIITLHTAFSRMPNQPKTYVQHVMEQDGKKLIELLDQGAHFYICGDGSQMAPAVEATLMKSYADVHQVSEADARLWLQQLEEKGRYAKDVWAG
modifications: mutant P450 35-E11 protein sequence
B2: Wild-type BM-3: wild-type cytochrome P450 BM-3 from Bacillus megaterium, SEQ ID NO:1 (protein, listed as Bacillus megaterium)
chain: TIKEMPQPKTFGELKNLPLLNTDKPVQALMKIADELGEIFKFEAPGRVTRYLSSQRLIKEACDESRFDKNLSQALKFVRDFAGDGLFTSWTHEKNWKKAHNILLPSFSQQAMKGYHAMMVDIAVQLVQKWERLNADEHIEVPEDMTRLTLDTIGLCGFNYRFNSFYRDQPHPFITSMVRALDEAMNKLQRANPDDPAYDENKRQFQEDIKVMNDLVDKIIADRKASGEQSDDLLTHMLNGKDPETGEPLDDENIRYQIITFLIAGHETTSGLLSFALYFLVKNPHVLQKAAEEAARVLVDPVPSYKQVKQLKYVGMVLNEALRLWPTAPAFSLYAKEDTVLGGEYPLEKGDELMVLIPQLHRDKTIWGDDVEEFRPERFENPSAIPQHAFKPFGNGQRACIGQQFALHEATLVLGMMLKHFDFEDHTNYELDIKETLTLKPEGFVVKAKSKKIPLGGIPSPSTEQSAKKVRKKAENAHNTPLLVLYGSNMGTAEGTARDLADIAMSKGFAPQVATLDSHAGNLPREGAVLIVTASYNGHPPDNAKQFVDWLDQASADEVKGVRYSVFGCGDKNWATTYQKVPAFIDETLAAKGAENIADRGEADASDDFEGTYEEWREHMWSDVAAYFNLDIENSEDNKSTLSLQFVDSAADMPLAKMHGAFSTNVVASKELQQPGSARSTRHLEIELPKEASYQEGDHLGVIPRNYEGIVNRVTARFGLDASQQIRLEAEEEKLAHLPLAKTVSVEELLQYVELQDPVTRTQLRAMAAKTVCPPHKVELEALLEKQAYKEQVLAKRLTMLELLEKYPACEMKFSEFIALLPSIRPRYYSISSSPRVDEKQASITVSVVSGEAWSGYGEYKGIASNYLAELQEGDTITCFISTPQSEFTLPKDPETPLIMVGPGTGVAPFRGFVQARKQLKEQGQSLGEAHLYFGCRSPHEDYLYQEELENAQSEGIITLHTAFSRMPNQPKTYVQHVMEQDGKKLIELLDQGAHFYICGDGSQMAPAVEATLMKSYADVHQVSEADARLWLQQLEEKGRYAKDVWAG

Key:
[1] = NADPH oxidation/consumption rates and coupling efficiency; assay type: biochemical
Method: NADPH oxidation rates were measured over 20 s at 25° C. using a BioSpec-1601 UV-Vis spectrophotometer (Shimadzu, Columbia, MD) and 1 cm pathlength cuvettes. […] The reaction was initiated by the addition of NADPH and the decrease in absorption at 340 nm was monitored. NADPH consumption rates were also measured without substrate (see Table 2).
The coupling efficiency is estimated from product formation rate/NADPH oxidation rate. In general, NADPH oxidation rates cannot be measured on the same time scale as ethanol formation rates.
For the data shown in Table 6 the initial NADPH consumption rates were measured over 15 seconds at 340 nm as nmol NADPH/min/nmol protein. Octane reactions contained 100 nM P450, 166 uM NADPH, and 4 mM octane in 1% ethanol and potassium phosphate buffer. […] Errors are at most 10%. Initial rates were measured by GC over 1 minute as nmol total products/min/nmol protein. Octane reactions contained 100 nM P450, 500 uM NADPH, and 4 mM octane in 1% ethanol and potassium phosphate buffer. Propane reactions contained 1 uM P450, 500 uM NADPH, and propane-saturated potassium phosphate buffer. Coupling was determined by ratio of product formation rate to NADPH consumption rate. Total turnover numbers were determined as nmol product/nmol enzyme. Octane reactions contained 10-25 nM P450, 500 uM NADPH, and 4 mM octane in 1% ethanol and potassium phosphate buffer. Propane reactions contained 10-25 nM protein, potassium phosphate buffer saturated with propane, and an NADPH regeneration system containing 100 uM NADP+, 2 U/mL isocitrate dehydrogenase, and 10 mM isocitrate.
For Table 13, total turnover numbers were determined as nmol product/nmol protein. […] The rates of product formation were measured by GC over 20 s as nmol total products/min/nmol protein. The reactions contained P450 (200 nM), NADPH (500 μM) and octane (2 mM) in ethanol (2%) and potassium phosphate buffer (0.1 M, pH 8.0). The rates of NADPH oxidation were measured over 20 s at 340 nm as nmol NADPH/min/nmol protein. The reactions contained P450 (200 nM), NADPH (160 μM), and octane (2 mM) in ethanol (2%) and potassium phosphate buffer (0.1 M, pH 8.0). The background NADPH oxidation rate (without substrate) rate was 220/min. The coupling efficiency is the ratio of product formation rate to NADPH oxidation rate.
The activity of BM-3-A328V on CM and other substrates such as HME, DME, and propane was further investigated by measuring product formation rate, cofactor consumption and coupling efficiency (Table 14). This mutant was also found to be capable to hydroxylate ethane to ethanol, although only for a total of about 5-10 turnovers. In Table 14 “consumption” rates are expressed as nmol NADPH/nmol enzyme/min and “product formation” rates are expressed as nmol product/nmol enzyme/min.

[2] = T50 determination (heat inactivation of CO-binding); assay type: physicochemical
Method: T50 determination. A solution of purified enzyme (1-3 μM) in 100 mM KPi pH 8.0 buffer was transferred on a PCR 96-well plate and incubated for 10 minutes at different temperatures (from 37° C. to 60° C.) in a PCR thermocycler. The plate was then cooled on ice, centrifuged at 1500 g for 10 min. 160 μL of the protein solution was then transferred on a 96-well microtiter plate with 40 μL of sodium hydrosulfite 0.1 M in 1 M KPi pH 8.0. A protein sample incubated at room temperature and one incubated on ice were included in the series. Concentration of folded protein was then determined by measuring CO-binding difference spectra using absorption at 450 and 490 nm and extinction coefficient ε450-490=91,000 M^−1 cm^−1. CO-binding signals were normalized to protein concentration of the sample incubated at 4° C. T50 values were calculated as midpoint inactivation temperatures from nonlinear fitting to the heat-inactivation curves. Experiments were carried out in triplicate.
As a first step, we aimed at increasing the thermostability of 35E11 heme domain in order to obtain a more ‘evolvable’ parent. […] To regain stability and allow further evolution, stabilizing mutations, derived from a thermostable peroxygenase, was tested in single and in combination (Table 16). The effect on enzyme's thermostability of each single mutation or combination thereof on thermostability was evaluated by monitoring temperature-dependent inactivation of the enzyme's CO-binding (FIG. 36C). Among 35E11 derivatives, ETS8 was selected as the best candidate for further evolution experiments, in that its higher thermostability (ΔT50=+5.1° C.) was accompanied by only a 20% decrease in propane activity on propane. […]
T50 values determined from heat-inactivation curves of heme-dependent CO-binding spectral shift show how mutations accumulated during laboratory evolution affected enzyme stability (FIG. 37E) and enable an estimation per-mutation stability penalties for each directed evolution round (FIG. 37F). […]

[3] = laurate; cited from earlier work

| Molecule | Coupling efficiency ([1]; Octane) | NADPH oxidation rate ([1]; ethane) | Coupling efficiency ([1]; ethane, product formation rate/NADPH oxidation rate) | NADPH oxidation rate ([1]; no substrate) | NADPH oxidation rate ([1]; octane, 1% ethanol) | Coupling efficiency ([1]; propane) | NADPH oxidation rate ([1]; propane) | T50 ([2]; 10 minutes incubation, midpoint inactivation temperature of CO-binding) | ΔT50 ([2]; relative to 35E11) | ΔT50 ([2]; stability loss from wild-type to 35E11) | Km [3] | catalytic efficiency [3] |
| --- | --- | --- | --- | --- | --- | --- | --- | --- | --- | --- | --- | --- |
| B1 | 64% | ~520 min⁻¹ | 0.08% | 390 min⁻¹ | 660 min⁻¹ | 26% | 800 min⁻¹ | 43.4 ± 0.6 °C | 0 °C | −11.6 °C | – | – |
| B2 | – | – | – | – | – | – | – | – | – | – | 210 µM | 190000 M⁻¹ s⁻¹ |
